{"source": "patent US20240400654A1", "key": {"[1]": {"biological_target": "HRgpA-6H (Porphyromonas gingivalis) (UniProt P28784)", "sequence (P28784 228-860)": "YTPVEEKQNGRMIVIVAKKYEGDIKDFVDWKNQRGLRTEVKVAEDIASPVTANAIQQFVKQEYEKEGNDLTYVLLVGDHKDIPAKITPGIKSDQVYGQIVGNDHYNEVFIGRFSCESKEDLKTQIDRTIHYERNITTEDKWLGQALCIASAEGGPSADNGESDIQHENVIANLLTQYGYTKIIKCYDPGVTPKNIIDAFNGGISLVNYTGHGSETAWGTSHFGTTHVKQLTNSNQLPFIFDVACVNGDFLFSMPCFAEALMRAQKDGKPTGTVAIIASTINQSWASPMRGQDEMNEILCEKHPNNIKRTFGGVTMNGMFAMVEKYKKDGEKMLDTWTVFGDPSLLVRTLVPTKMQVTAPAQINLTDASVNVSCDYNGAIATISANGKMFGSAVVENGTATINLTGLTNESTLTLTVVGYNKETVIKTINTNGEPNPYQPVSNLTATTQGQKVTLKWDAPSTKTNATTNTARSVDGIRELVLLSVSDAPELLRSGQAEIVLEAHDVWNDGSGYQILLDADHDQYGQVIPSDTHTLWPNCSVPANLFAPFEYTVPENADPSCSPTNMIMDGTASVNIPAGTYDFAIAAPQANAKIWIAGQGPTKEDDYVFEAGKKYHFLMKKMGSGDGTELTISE", "test": "ELISA, FASEBA screening, coated HRgpA-6H 0.0625 ug/ml"}, "[2]": {"biological_target": "HRgpA-6H (Porphyromonas gingivalis) (UniProt P28784)", "test": "ELISA, FASEBA screening, coated HRgpA-6H; variant OD over parental WT Fab OD"}}, "note": "Values joined by “and” are separate entries in the source; they are usually repeats but may differ in a detail not shown here. Equal values may be shown once."}
{"binder": "KB001 parental mouse Fab FASEBA variant VH A103M (Fab, V domains shown) VH: EVQLKQSGPGLVAPSQSLSITCTVSGFSLSIYSVHWVRQPPGKGLEWLGMIWGGGSSDYNSALKSRLSISKDNSKSQVFLKMNSLQTDDTAMYYCARNGNFYMMDYWGQGTSVTVSS VL: QIVLTQSPAIMSASLGERVTMTCTASSSVSSSFLHWYQQKPGSSPQLWIYSTSNLASGVPARFSGSGSGTSYSLTISSMEAEDAATYYCHQYHHSPYIYTFGGGTKLEIK", "values": [{"measurement": "OD450 nm", "setting": "[1]", "result": 0.811}, {"measurement": "Ratio OD(Variant)/OD(WT)", "setting": "[2]", "result": 0.941}]}
{"binder": "KB001 parental mouse Fab FASEBA variant VH Y106H (Fab, V domains shown) VH: EVQLKQSGPGLVAPSQSLSITCTVSGFSLSIYSVHWVRQPPGKGLEWLGMIWGGGSSDYNSALKSRLSISKDNSKSQVFLKMNSLQTDDTAMYYCARNGNFYAMDHWGQGTSVTVSS VL: QIVLTQSPAIMSASLGERVTMTCTASSSVSSSFLHWYQQKPGSSPQLWIYSTSNLASGVPARFSGSGSGTSYSLTISSMEAEDAATYYCHQYHHSPYIYTFGGGTKLEIK", "values": [{"measurement": "OD450 nm", "setting": "[1]", "result": 0.722}, {"measurement": "Ratio OD(Variant)/OD(WT)", "setting": "[2]", "result": 0.939}]}
{"binder": "KB001 parental mouse Fab FASEBA variant VH A103K (Fab, V domains shown) VH: EVQLKQSGPGLVAPSQSLSITCTVSGFSLSIYSVHWVRQPPGKGLEWLGMIWGGGSSDYNSALKSRLSISKDNSKSQVFLKMNSLQTDDTAMYYCARNGNFYKMDYWGQGTSVTVSS VL: QIVLTQSPAIMSASLGERVTMTCTASSSVSSSFLHWYQQKPGSSPQLWIYSTSNLASGVPARFSGSGSGTSYSLTISSMEAEDAATYYCHQYHHSPYIYTFGGGTKLEIK", "values": [{"measurement": "OD450 nm", "setting": "[1]", "result": 0.723}, {"measurement": "Ratio OD(Variant)/OD(WT)", "setting": "[2]", "result": 0.839}]}
{"binder": "KB001 parental mouse Fab FASEBA variant VH Y106Q (Fab, V domains shown) VH: EVQLKQSGPGLVAPSQSLSITCTVSGFSLSIYSVHWVRQPPGKGLEWLGMIWGGGSSDYNSALKSRLSISKDNSKSQVFLKMNSLQTDDTAMYYCARNGNFYAMDQWGQGTSVTVSS VL: QIVLTQSPAIMSASLGERVTMTCTASSSVSSSFLHWYQQKPGSSPQLWIYSTSNLASGVPARFSGSGSGTSYSLTISSMEAEDAATYYCHQYHHSPYIYTFGGGTKLEIK", "values": [{"measurement": "OD450 nm", "setting": "[1]", "result": 0.768}, {"measurement": "Ratio OD(Variant)/OD(WT)", "setting": "[2]", "result": 0.999}]}
{"binder": "KB001 parental mouse Fab FASEBA variant VH A103I (Fab, V domains shown) VH: EVQLKQSGPGLVAPSQSLSITCTVSGFSLSIYSVHWVRQPPGKGLEWLGMIWGGGSSDYNSALKSRLSISKDNSKSQVFLKMNSLQTDDTAMYYCARNGNFYIMDYWGQGTSVTVSS VL: QIVLTQSPAIMSASLGERVTMTCTASSSVSSSFLHWYQQKPGSSPQLWIYSTSNLASGVPARFSGSGSGTSYSLTISSMEAEDAATYYCHQYHHSPYIYTFGGGTKLEIK", "values": [{"measurement": "OD450 nm", "setting": "[1]", "result": "0.695 and 0.693"}, {"measurement": "Ratio OD(Variant)/OD(WT)", "setting": "[2]", "result": "0.806 and 0.804"}]}
{"binder": "KB001 parental mouse Fab FASEBA variant VH Y106I (Fab, V domains shown) VH: EVQLKQSGPGLVAPSQSLSITCTVSGFSLSIYSVHWVRQPPGKGLEWLGMIWGGGSSDYNSALKSRLSISKDNSKSQVFLKMNSLQTDDTAMYYCARNGNFYAMDIWGQGTSVTVSS VL: QIVLTQSPAIMSASLGERVTMTCTASSSVSSSFLHWYQQKPGSSPQLWIYSTSNLASGVPARFSGSGSGTSYSLTISSMEAEDAATYYCHQYHHSPYIYTFGGGTKLEIK", "values": [{"measurement": "OD450 nm", "setting": "[1]", "result": "0.73 and 0.728 and 0.764"}, {"measurement": "Ratio OD(Variant)/OD(WT)", "setting": "[2]", "result": "0.949 and 0.947 and 0.993"}]}
{"binder": "KB001 parental mouse Fab FASEBA variant VH M104L (Fab, V domains shown) VH: EVQLKQSGPGLVAPSQSLSITCTVSGFSLSIYSVHWVRQPPGKGLEWLGMIWGGGSSDYNSALKSRLSISKDNSKSQVFLKMNSLQTDDTAMYYCARNGNFYALDYWGQGTSVTVSS VL: QIVLTQSPAIMSASLGERVTMTCTASSSVSSSFLHWYQQKPGSSPQLWIYSTSNLASGVPARFSGSGSGTSYSLTISSMEAEDAATYYCHQYHHSPYIYTFGGGTKLEIK", "values": [{"measurement": "OD450 nm", "setting": "[1]", "result": 0.786}, {"measurement": "Ratio OD(Variant)/OD(WT)", "setting": "[2]", "result": 0.904}]}
{"binder": "KB001 parental mouse Fab FASEBA variant VH A103C (Fab, V domains shown) VH: EVQLKQSGPGLVAPSQSLSITCTVSGFSLSIYSVHWVRQPPGKGLEWLGMIWGGGSSDYNSALKSRLSISKDNSKSQVFLKMNSLQTDDTAMYYCARNGNFYCMDYWGQGTSVTVSS VL: QIVLTQSPAIMSASLGERVTMTCTASSSVSSSFLHWYQQKPGSSPQLWIYSTSNLASGVPARFSGSGSGTSYSLTISSMEAEDAATYYCHQYHHSPYIYTFGGGTKLEIK", "values": [{"measurement": "OD450 nm", "setting": "[1]", "result": 0.77}, {"measurement": "Ratio OD(Variant)/OD(WT)", "setting": "[2]", "result": 0.893}]}
